How the values were obtained:
Test in all cases: SPR
[1] = molecular target: neonatal Fc receptor (FcRn), soluble, His-tagged (UniProt P55899); conditions: pH 6.0; Running buffer not stated; Table 1 labels the measurement pH 6.0
[2] = molecular target: human FcγRIIIa, His-tagged (human) (UniProt P08637)
[3] = molecular target: human neonatal Fc receptor (FcRn), His-tagged (human) (UniProt P55899)

Sequence of UniProt P08637 (P08637 17-208): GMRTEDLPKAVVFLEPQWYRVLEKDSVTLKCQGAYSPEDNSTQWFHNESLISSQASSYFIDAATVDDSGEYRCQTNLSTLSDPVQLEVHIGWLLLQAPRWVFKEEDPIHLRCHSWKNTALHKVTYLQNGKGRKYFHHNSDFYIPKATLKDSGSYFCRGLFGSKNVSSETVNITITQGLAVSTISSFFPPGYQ

## VRC01 (wild-type Fc) IgG1
[1]
  Kon: 94000 M⁻¹ s⁻¹
  koff: 0.279 s⁻¹

## VRC01-IHH (non-FcRn-binding mutant) (antibody)
[2]
  Kd: 4500 nM
  koff: 0.187 s⁻¹

## VRC01-LS (antibody)
[3]
  koff: 0.0558 s⁻¹
  kon: 223000 M⁻¹ s⁻¹
[2]
  Kd: 1010 nM
  koff: 0.1 s⁻¹

## VRC01 (the wild type) (antibody)
[2]
  Kd: 1300 nM
  koff: 0.105 s⁻¹

Source: article PMC4433741
